# Assay results reported in patent US20140348834A1 (published 2014).
# Biological target: T1, human IL-17A (human, UniProt Q16552 24-155)
# T1 construct: Recombinant; biotinylated in the ELISA; also called hIL-17; hIL17A
# Experiment: hIL17A ELISA
# T1 sequence (Q16552 24-155): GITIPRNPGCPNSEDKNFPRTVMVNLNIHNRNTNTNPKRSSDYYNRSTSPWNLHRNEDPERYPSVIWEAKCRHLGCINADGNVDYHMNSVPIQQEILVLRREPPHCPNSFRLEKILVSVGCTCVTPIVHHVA
row,Binder,EC50 [nM]
1,"IL17-h5C5.12 (antibody, V domains shown, IgG; constant regions not specified) VH: EVQLVQSGAEVKKPGASVKVSCKASGYTFTDYEFHWVRQAPGQGLEWIGVIHPGNGGTAYNQNFRDRATLTADKSTSTAYMELSSLRSEDTAVYYCTRFLTYEGYFDYWGQGTLVTVSS VL: EIVMTQSPATLSVSPGERATLSCKASQSVSIDVGWYQQKPGQAPRLLIYHASNRYTGIPARFSGSGSGTDFTLTISSLQPEDFAVYYCQQDYSSPYTFGQGTKLEIKR",0.23
2,"IL17-h5C5.13 (antibody, V domains shown, IgG; constant regions not specified) VH: QVQLQQSGAELVRPGASVKLSCKALGYTFTDYEFHWVKQTPVHGLEWIGVIHPGNGGTAYNQNFRDKATLTADKSSSTAYMELSSLTSEDSGVYYCTRFLTYEGYFDYWGQGTALTVSS VL: EIVMTQSPATLSVSPGERATLSCKASQSVSIDVGWFQQKPGQSPRLLIYHASNRYTGVPARFSGSGSGTDFTLTISSLQPEDFAVYFCQQDYSSPYTFGQGTKLEIKR",0.03
3,"IL17-h10F7.1 (antibody, V domains shown, Cloned into IgG expression vectors; constant regions not specified) VH: EVQLVQSGAEVKKPGSSVKVSCKASGYTFTDYEIHWVRQAPGQGLEWIGVNDPESGGTFYNQKFDGRATLTADKSTSTAYMELSSLRSEDTAVYYCTRYYRYESFYGMDYWGQGTTVTVSS VL: QIVLTQSPAIMSASPGEKVTMTCSASSSISYIYWFQQKPGTSPKRWIYATFELASGVPARFSGSGSGTSYSLTISSMEAEDAATYYCHQRSSYPWTFGGGSKLEIKR",1.7
4,"IL17-h5C5.1 (antibody, V domains shown, IgG; constant regions not specified) VH: QVQLQQSGAELVRPGASVKLSCKALGYTFTDYEFHWVKQTPVHGLEWIGVIHPGNGGTAYNQNFRDKATLTADKSSSTAYMELSSLTSEDSGVYYCTRFLTYEGYFDYWGQGTALTVSS VL: NIVMTQTPKFLLVSPGDRVTITCKASQSVSIDVGWFQQKPGQSPKLLIYHASNRYTGVPDRFTGSGYGTDFTFTVNTVQAEDLAVYFCQQDYSSPYTFGGGTKLELKR",1
5,"IL17-h5C5.6 (antibody, V domains shown, IgG; constant regions not specified) VH: EVQLVQSGAEVKKPGASVKVSCKASGYTFTDYEFHWVRQAPGQGLEWIGVIHPGNGGTAYNQNFRDRATLTADKSTSTAYMELSSLRSEDTAVYYCTRFLTYEGYFDYWGQGTLVTVSS VL: DIQMTQSPSSLSASVGDRVTITCKASQSVSIDVGWYQQKPGKAPKLLIYHASNRYTGVPSRFSGSGSGTDFTFTISSLQPEDFATYYCQQDYSSPYTFGQGTKLEIKR",0.11
6,"IL17-h5C5.7 (antibody, V domains shown, IgG; constant regions not specified) VH: QVQLQQSGAELVRPGASVKLSCKALGYTFTDYEFHWVKQTPVHGLEWIGVIHPGNGGTAYNQNFRDKATLTADKSSSTAYMELSSLTSEDSGVYYCTRFLTYEGYFDYWGQGTALTVSS VL: DIQMTQSPSSLSASVGDRVTITCKASQSVSIDVGWFQQKPGKSPKLLIYHASNRYTGVPSRFSGSGSGTDFTFTISSLQPEDFATYFCQQDYSSPYTFGQGTKLEIKR",0.03

# The remaining lines, values ahead:
row,EC50 [nM],Binder
1,0.05,"IL17-h5C5.10 (antibody, V domains shown, IgG; constant regions not specified) VH: QVQLQQSGAELVRPGASVKLSCKALGYTFTDYEFHWVKQTPVHGLEWIGVIHPGNGGTAYNQNFRDKATLTADKSSSTAYMELSSLTSEDSGVYYCTRFLTYEGYFDYWGQGTALTVSS VL: EIVMTQSPATLSVSPGERATLSCKASQSVSIDVGWYQQKPGQAPRLLIYHASNRYTGIPARFSGSGSGTDFTLTISSLQPEDFAVYYCQQDYSSPYTFGQGTKLEIKR"
2,0.05,"IL17-h5C5.5 (antibody, V domains shown, IgG; constant regions not specified) VH: EVQLVQSGAEVKKPGASVKVSCKASGYTFTDYEFHWVRQAPGQGLEWMGVIHPGNGGTAYNQNFRDRVTITADKSTSTAYMELSSLRSEDTAVYYCARFLTYEGYFDYWGQGTLVTVSS VL: DIQMTQSPSSLSASVGDRVTITCKASQSVSIDVGWYQQKPGKAPKLLIYHASNRYTGVPSRFSGSGSGTDFTFTISSLQPEDFATYYCQQDYSSPYTFGQGTKLEIKR"
3,0.03,"IL17-h5C5.17 (antibody, V domains shown, IgG; constant regions not specified) VH: EVQLVQSGAEVKKPGASVKVSCKASGYTFTDYEFHWVRQAPGQGLEWMGVIHPGNGGTAYNQNFRDRVTITADKSTSTAYMELSSLRSEDTAVYYCARFLTYEGYFDYWGQGTLVTVSS VL: NIVMTQSPSSLSASVGDRVTITCKASQSVSIDVGWFQQKPGKSPKLLIYHASNRYTGVPSRFSGSGSGTDFTFTISSLQPEDFATYFCQQDYSSPYTFGQGTKLEIKR"
4,0.02,"IL17-h5C5.16 (antibody, V domains shown, IgG; constant regions not specified) VH: QVQLQQSGAELVRPGASVKLSCKALGYTFTDYEFHWVKQTPVHGLEWIGVIHPGNGGTAYNQNFRDKATLTADKSSSTAYMELSSLTSEDSGVYYCTRFLTYEGYFDYWGQGTALTVSS VL: NIVMTQSPSSLSASVGDRVTITCKASQSVSIDVGWFQQKPGKSPKLLIYHASNRYTGVPSRFSGSGSGTDFTFTISSLQPEDFATYFCQQDYSSPYTFGQGTKLEIKR"
